Tests used:
[1] = substrate: CC[C@](O)(c1nnc(NCc2ccc3c(-c4ccc(F)cc4)cc(=O)oc3c2)o1)C(F)(F)F; experiment: (§1) Activity of rat recombinant CYP3A2 expressed in baculovirus-infected insect cells assessed as enzyme-mediated N-((4-(4-fluorophenyl)-2-oxochroman-7-yl)methyl)-2-((S)-2-hydroxy-2-(trifluoromethyl)butanoyl)hydrazinecarboxamide formation preincubated for 3 mins by Michaelis-Menten equation in presence of NADPH for 10 mins; assay type: ADME
[2] = substrate: CC[C@](O)(c1nnc(NCc2ccc3c(-c4ccc(F)cc4)cc(=O)oc3c2)o1)C(F)(F)F; experiment: as §1, with “CYP1A1” for “CYP3A2”; assay type: ADME

Protein	Km [1]	Km [2]
Cytochrome P450 3A2 (Rattus norvegicus) (protein) MDLLSALTLETWVLLAVILVLLYRLGTHRHGIFKKQGIPGPKPLPFLGTVLNYYKGLGRFDMECYKKYGKIWGLFDGQTPVFAIMDTEMIKNVLVKECFSVFTNRRDFGPVGIMGKAVSVAKDEEWKRYRALLSPTFTSGRLKEMFPIIEQYGDILVKYLKQEAETGKPVTMKKVFGAYSMDVITSTSFGVNVDSLNNPKDPFVEKTKKLLRFDFFDPLFLSVVLFPFLTPIYEMLNICMFPKDSIAFFQKFVHRIKETRLDSKHKHRVDFLQLMLNAHNNSKDEVSHKALSDVEIIAQSVIFIFAGYETTSSTLSFVLYFLATHPDIQKKLQEEIDGALPSKAPPTYDIVMEMEYLDMVLNETLRLYPIGNRLERVCKKDIELDGLFIPKGSVVTIPTYALHHDPQHWPKPEEFHPERFSKENKGSIDPYVYLPFGNGPRNCIGMRFALMNMKLALTKVLQNFSFQPCKETQIPLKLSRQAILEPEKPIVLKVLPRDAVINGA	2.2 µM	
Cytochrome P450 1A1 (Rattus norvegicus) (protein) MPSVYGFPAFTSATELLLAVTTFCLGFWVVRVTRTWVPKGLKSPPGPWGLPFIGHVLTLGKNPHLSLTKLSQQYGDVLQIRIGSTPVVVLSGLNTIKQALVKQGDDFKGRPDLYSFTLIANGQSMTFNPDSGPLWAARRRLAQNALKSFSIASDPTLASSCYLEEHVSKEAEYLISKFQKLMAEVGHFDPFKYLVVSVANVICAICFGRRYDHDDQELLSIVNLSNEFGEVTGSGYPADFIPILRYLPNSSLDAFKDLNKKFYSFMKKLIKEHYRTFEKGHIRDITDSLIEHCQDRRLDENANVQLSDDKVITIVFDLFGAGFDTITTAISWSLMYLVTNPRIQRKIQEELDTVIGRDRQPRLSDRPQLPYLEAFILETFRHSSFVPFTIPHSTIRDTSLNGFYIPKGHCVFVNQWQVNHDQELWGDPNEFRPERFLTSSGTLDKHLSEKVILFGLGKRKCIGETIGRLEVFLFLAILLQQMEFNVSPGEKVDMTPAYGLTLKHARCEHFQVQMRSSGPQHLQA		6 µM
